The source of these data is patent US20130157945A1 (NEW YORK UNIVERSITY SCHOOL OF MEDICINE, published 2013).

In assay [1] the target is T1, TNFR1 (as used in the surface plasmon resonance assays) (UniProt P19438 30-211, limits assumed).
T1 sequence (looked up): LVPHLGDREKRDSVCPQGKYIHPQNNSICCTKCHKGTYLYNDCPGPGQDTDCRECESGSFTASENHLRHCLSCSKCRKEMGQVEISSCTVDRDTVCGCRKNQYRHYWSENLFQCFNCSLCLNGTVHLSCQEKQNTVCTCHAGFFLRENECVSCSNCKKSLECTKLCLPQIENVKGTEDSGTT
Put plainly: surface plasmon resonance (SensiQ Pioneer, FastStep kinetic assay).

The target of assay [2] is T1, TNFR1 (as used in the surface plasmon …). Put plainly: surface plasmon resonance. (In SPR one partner is held on a chip, and binding of the other changes the refractive index at the surface.)
In assay [3] the target is T2, TNFR2 (as used in the surface plasmon resonance assays) (UniProt P20333 23-257, limits assumed).
T2 sequence (looked up): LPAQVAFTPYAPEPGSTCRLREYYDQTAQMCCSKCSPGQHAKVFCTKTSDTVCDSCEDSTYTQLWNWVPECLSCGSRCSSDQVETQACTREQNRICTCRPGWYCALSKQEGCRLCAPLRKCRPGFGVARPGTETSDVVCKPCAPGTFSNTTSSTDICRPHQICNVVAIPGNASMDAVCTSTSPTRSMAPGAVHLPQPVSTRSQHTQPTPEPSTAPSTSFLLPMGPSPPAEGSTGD
Put plainly: surface plasmon resonance.

Assay [4] has as its target T2, TNFR2 (as used in the surface plasmon …). Nature of the assay: surface plasmon resonance, KD against that of TNFα/TNFR2.
Assay [5] addresses T1, TNFR1 (as used in the surface plasmon …). Put plainly: surface plasmon resonance, KD against that of TNFα/TNFR1.
Assay [6] deals with T3, Atsttrin (yeast two-hybrid construct in pDBleu) (human, UniProt P04386 1-147 (Saccharomyces cerevisiae entry), limits assumed).
T3 construct: domain: Gal4 DBD; also called ½A+P3+P4+½C+P5+½F; ½F-P3-P4-½A-P5-½C
Nature of the assay: yeast two-hybrid, β-galactosidase assay.

Usually Kd stands for the concentration at which binding is half-saturated. A low value points to tighter binding. Usually koff stands for the first-order rate constant of dissociation. Low readings indicate a long-lived complex, high ones a short-lived complex. As usually defined, the kon is the rate constant with which the complex forms. A high value points to fast association.

B1: recombinant GEP (granulin/epithelin precursor) (ligand)
chain: TRCPDGQFCPVACCLDPGGASYSCCRPLLDKWPTTLSRHLGGPCQVDAHCSAGHSCIFTVSGTSSCCPFPEAVACGDGHHCCPRGFHCSADGRSCFQRSGNNSVGAIQCPDSQFECPDFSTCCVMVDGSWGCCPMPQASCCEDRVHCCPHGAFCDLVHTRCITPTGTHPLAKKLPAQRTNRAVALSSSVMCPDARSRCPDGSTCCELPSGKYGCCPMPNATCCSDHLHCCPQDTVCDLIQSKCLSKENATTDLLTKLPAHTVGDVKCDMEVSCPDGYTCCRLQSGAWGCCPFTQAVCCEDHIHCCPAGFTCDTQKGTCEQGPHQVPWMEKAPAHLSLPDPQALKRDVPCDNVSSCPSSDTCCQLTSGEWGCCPIPEAVCCSDHQHCCPQRYTCVAEGQCQRGSEIVAGLEKMPARRGSLSHPRDIGCDQHTSCPVGGTCCPSQGGSWACCQLPHAVCCEDRQHCCPAGYTCNVKARSCEKEVVSAQPATFLARSPHVGVKDVECGEGHFCHDNQTCCRDNRQGWACCPYAQGVCCADRRHCCPAGFRCARRGTKCLRREAPRWDAPLRDPALRQLL
notes: also called purified GEP; PGRN
In assay [1], B1 had a Kd of 1.58 nM, a koff of 0.000814 s⁻¹ and a kon of 516000 M⁻¹ s⁻¹.

B2: Atsttrin (recombinant, released from GST-Atsttrin by factor Xa) (peptide)
chain: PQASCCEDRVHCCPHGAFCDLVHTRCITPTGTHPLAKKLPAQRTNRAVALSSSASSKENATTDLLTKLPAHTVGDVKCDMEVSCPDGYTCCRLQSGAWPWCEQGPHQVPWMEKAPAHLSLPDPQALKRDVPCDNVSSCPSSDTCCQLTSGEWGCCPIP
notes: Expressed in bacteria as GST fusion, cleaved with factor Xa; also called Antagonist of TNF/TNFR Signaling via Targeting TNF Receptors; purified Atsttrin
Turning to B2, the values for the Kd in assay [2] and in assay [3] were 160 nM and 85.9 nM, respectively. The “fold higher binding affinity than TNFα” value in assay [4] was approximately 9 fold. The “fold lower affinity than TNFα” value in assay [5] was approximately 18 fold.

B3: FAS (yeast two-hybrid plasmid of Example 9) (receptor, UniProt P25445 26-173, looked up)
chain: QVTDINSKGLELRKTVTTVETQNLEGLHHDGQFCHKPCPPGERKARDCTVNGDEPDCVPCQEGKEYTDKAHFSSKCRRCRLCDEGHGLEVEINCTRTQNTKCRCKPNFFCNSTVCEHCDPCTKCEHGIIKECTLTSNTKCKEEGSRSN
For the molecule B3, the binding result in assay [6] is “no binding”.

B4: RANK (yeast two-hybrid plasmid of Example 9) (receptor, UniProt Q9Y6Q6 30-212, looked up)
chain: IAPPCTSEKHYEHLGRCCNKCEPGKYMSSKCTTTSDSVCLPCGPDEYLDSWNEEDKCLLHKVCDTGKALVAVVAGNSTTPRRCACTAGYHWSQDCECCRRNTECAPGLGAQHPLQLNKDTVCKPCLAGYFSDAFSSTDKCRPWTNCTFLGKRVEHHGTEKSDAVCSSSLPARKPPNEPHVYLP
Turning to B4, the binding result in assay [6] is “no binding”.
